Laboratory results as given in PMC11074293 (2024).

Key:
Experiment in all cases: ITC
CUL3^WT-RBX1 = CUL3^WT-RBX1 (human, UniProt Q13618 1-768; P62877 1-108)
CUL3^Δ1–24-RBX1 = CUL3^Δ1–24-RBX1 (human, UniProt Q13618 25-768; P62877 1-108)
CUL3^Δ1–13-RBX1 = CUL3^Δ1–13-RBX1 (human, UniProt Q13618 14-768; P62877 1-108)
Chain of CUL3^Δ1–13-RBX1 (Q13618 14-768, stated change not applied, chain 1 of 2): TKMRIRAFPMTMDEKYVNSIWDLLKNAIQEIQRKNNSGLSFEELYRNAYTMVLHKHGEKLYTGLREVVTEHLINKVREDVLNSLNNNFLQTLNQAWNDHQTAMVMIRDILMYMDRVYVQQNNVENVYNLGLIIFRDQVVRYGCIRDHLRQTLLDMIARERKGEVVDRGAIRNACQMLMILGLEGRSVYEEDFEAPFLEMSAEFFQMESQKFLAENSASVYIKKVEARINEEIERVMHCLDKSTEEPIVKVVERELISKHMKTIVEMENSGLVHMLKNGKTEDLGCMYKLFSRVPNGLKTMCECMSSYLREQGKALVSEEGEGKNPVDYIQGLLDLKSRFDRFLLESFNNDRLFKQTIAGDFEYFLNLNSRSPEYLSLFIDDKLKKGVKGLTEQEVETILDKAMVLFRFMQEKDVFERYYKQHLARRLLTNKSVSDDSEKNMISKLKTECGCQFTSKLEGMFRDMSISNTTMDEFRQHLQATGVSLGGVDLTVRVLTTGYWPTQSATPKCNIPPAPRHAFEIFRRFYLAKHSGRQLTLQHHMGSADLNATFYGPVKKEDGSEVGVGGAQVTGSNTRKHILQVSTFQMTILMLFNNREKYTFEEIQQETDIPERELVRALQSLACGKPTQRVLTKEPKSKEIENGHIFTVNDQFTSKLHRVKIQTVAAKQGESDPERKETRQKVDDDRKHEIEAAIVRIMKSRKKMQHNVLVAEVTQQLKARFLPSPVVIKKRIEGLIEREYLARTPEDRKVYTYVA
Chain of CUL3^Δ1–13-RBX1 (P62877 whole entry, stated change not applied, chain 2 of 2): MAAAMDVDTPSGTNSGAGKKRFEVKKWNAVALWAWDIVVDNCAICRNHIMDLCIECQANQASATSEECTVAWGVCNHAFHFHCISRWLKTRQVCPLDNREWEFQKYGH

Chain of CUL3^WT-RBX1 (Q13618 whole entry, chain 1 of 2): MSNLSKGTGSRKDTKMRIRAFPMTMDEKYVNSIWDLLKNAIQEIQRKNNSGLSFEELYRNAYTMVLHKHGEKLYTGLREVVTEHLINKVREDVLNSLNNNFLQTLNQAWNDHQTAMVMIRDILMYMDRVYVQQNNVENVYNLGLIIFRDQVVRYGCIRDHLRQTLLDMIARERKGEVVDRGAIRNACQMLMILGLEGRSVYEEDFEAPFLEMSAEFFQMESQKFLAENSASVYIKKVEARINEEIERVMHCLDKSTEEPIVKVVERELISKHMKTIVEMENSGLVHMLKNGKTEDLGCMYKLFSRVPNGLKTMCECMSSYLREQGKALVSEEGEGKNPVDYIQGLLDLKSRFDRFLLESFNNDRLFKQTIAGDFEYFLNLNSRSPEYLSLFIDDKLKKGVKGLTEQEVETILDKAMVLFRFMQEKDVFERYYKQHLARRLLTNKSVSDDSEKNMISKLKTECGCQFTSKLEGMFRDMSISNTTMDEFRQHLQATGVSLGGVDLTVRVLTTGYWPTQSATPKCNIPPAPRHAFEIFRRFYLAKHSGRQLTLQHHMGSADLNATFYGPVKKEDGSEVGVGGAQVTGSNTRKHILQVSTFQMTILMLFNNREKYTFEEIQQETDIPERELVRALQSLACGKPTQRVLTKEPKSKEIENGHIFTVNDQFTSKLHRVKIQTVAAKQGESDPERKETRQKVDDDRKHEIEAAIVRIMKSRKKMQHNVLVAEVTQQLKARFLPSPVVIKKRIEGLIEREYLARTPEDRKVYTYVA
Chain of CUL3^WT-RBX1 (P62877 whole entry, chain 2 of 2): as the sequence (P62877 whole entry, stated change not applied, chain 2 of 2) above
Chain of CUL3^Δ1–24-RBX1 (Q13618 25-768, stated change not applied, chain 1 of 2): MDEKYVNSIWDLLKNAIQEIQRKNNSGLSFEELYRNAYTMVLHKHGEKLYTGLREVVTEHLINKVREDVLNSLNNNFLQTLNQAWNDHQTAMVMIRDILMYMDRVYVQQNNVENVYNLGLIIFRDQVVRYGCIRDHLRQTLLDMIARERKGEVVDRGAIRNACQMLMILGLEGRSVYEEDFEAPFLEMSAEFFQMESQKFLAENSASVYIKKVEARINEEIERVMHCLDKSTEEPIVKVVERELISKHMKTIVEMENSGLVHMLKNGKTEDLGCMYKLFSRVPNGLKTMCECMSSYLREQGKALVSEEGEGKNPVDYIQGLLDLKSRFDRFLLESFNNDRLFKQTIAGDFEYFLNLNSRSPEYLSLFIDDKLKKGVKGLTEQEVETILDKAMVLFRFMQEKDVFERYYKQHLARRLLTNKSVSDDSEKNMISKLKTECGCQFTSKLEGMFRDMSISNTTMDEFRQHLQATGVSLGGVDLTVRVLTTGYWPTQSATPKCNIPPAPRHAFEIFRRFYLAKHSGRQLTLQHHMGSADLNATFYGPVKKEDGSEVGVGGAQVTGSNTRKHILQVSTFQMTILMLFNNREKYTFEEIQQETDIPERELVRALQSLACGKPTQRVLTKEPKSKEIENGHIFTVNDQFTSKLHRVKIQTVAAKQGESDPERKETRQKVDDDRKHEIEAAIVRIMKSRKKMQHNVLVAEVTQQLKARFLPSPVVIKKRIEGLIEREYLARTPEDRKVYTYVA
Chain of CUL3^Δ1–24-RBX1 (P62877 whole entry, stated change not applied, chain 2 of 2): as the sequence (P62877 whole entry, stated change not applied, chain 2 of 2) above

Kd (CUL3^WT-RBX1): 60 nM | Kd (CUL3^Δ1–24-RBX1): 483 nM | Kd (CUL3^Δ1–13-RBX1): 176 nM
B1: KLHL22^1–178 (domain or fragment)
chain: MAEEQEFTQLCKLPAQPSHPHCVNNTYRSAQHSQALLRGLLALRDSGILFDVVLVVEGRHIEAHRILLAASCDYFRGMFAGGLKEMEQEEVLIHGVSYNAMCQILHFIYTSELELSLSNVQETLVAACQLQIPEIIHFCCDFLMSWVDEENILDVYRLAELFDLSRLTEQLDTYILKN
